Consider 99 substances from the supplement of paper PMC11502859.
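Note: lentiviral eGFP-IRES-mCherry reporter pool sorted by FACS 96 h post-transduction, gated on mCherry-high cells, Illumina read counts normalized per million, median across four biological replicates.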

The data set relates to HEK293T. Briefly: median enrichment of reporter reads in eGFP-reduced (low/intermediate) vs eGFP-high sorted cells (eGFP-extension fusion abundance) (ratio); higher = stronger loss of eGFP-fusion protein abundance (more destabilising extension).
As to WPEPLADITAGDEEPGLLLLLPVAPGVEVG [LIMD1], the median enrichment worked out at 12. On to WPFSWATLQSLPPFGR [ZNRD1], for which the median enrichment amounted to 6.12. For WPG [KDM8] the value was 0.882; for “WPGGGKHREREWPSGNPAGYPNPKGSYSQRHILVFVIILYQK [VPS26C]”, 16.9. For “WPHPAPPPPRPTRRPPDSSPGASSATPSLHPWGPSPPACTEQGLGVSWEA [ITGB4]” the value was 1.34; for “WPLDVGKPCGPPLITSSPRMTAEPQASGAGLMYPNLGQHDCRSIQSLPAPSMKGPPKTVLGTQCVAGSPPS [MINDY4]”, 0.736; for “WPLGRPPAQLPCPPPPSSSGFSVLGRLSWGRRWEGRDQLSSLAGKRGCGSQGGLQGTGMSGGHQAQRKRKQREFTGPPEKSQS [CRHR2]”, 1.19.

With “WPLQQNSFVLCGAMPSLTPNRVSVILRTFYPQHL [CPNE3]”, the median enrichment worked out at 16.4.

Turning to “WPLSPHPHLHPRTSLAIGAGPLQTLIPTPTEPLAQVPLVLPHSLAARCPGAHPCRAPKDGEVGGQELLSPTFHAPPLCI [GIT1]”, the median enrichment worked out at 3.23. Then WPMLNTHV [NABP1], with 0.435; and “WPPGTSLALLTHPRNTISGTRAAPRTRGYSRHNLIERAPAALTSTAFDTYASLVLLLSSESSCAHAFSRMGSPLAVAASVLAL [KIAA1522]”, with 8.47; and WPPPAPTRPRRALSIS [SLCO4A1], with 9.47. For WPPPASLSPHP [TTC24] the value was 0.329; for WPQFQLSWAPAWTLPMAMPSLGNLSLPSVG [PLA2G3], 12.4; for “WPRLSTCHLLACLTLRTHLPGPSLFHPREAELPKTQVFSYLFPILRGFP [ZDHHC18]”, 17.8. For the substance “WPSLPPKPRACLSAQLEGPRLQGVLPQSRCFLCIRDPLPSHPVSCLHRWIIFEPPCVDHFEPPGLAQFILIKVFLGGILGT [PARVG]”, the median enrichment amounted to 9.47. In the case of “WPSLRPTCTSGSKWVSSGSPARVLSECLCVCINICIPFGSIAAV [XPNPEP3]”, the median enrichment stood at 17.

Regarding “WPSPPCQGQDPDFSKCGSHSAGTCRDMRGGCCHGRLPLHTRHWGSDPPGRWPFSPSS [CYSRT1]”, the median enrichment came out at 2.04. For WPSSLPPKPTTQC [KPNA7], the median enrichment is 0.282.

In the case of WPTSRIYSSWKLPNGEDSTKY [KRTAP24-1], the median enrichment stood at 3.66. For WPV [HNRNPUL1] the value was 0.672; for “WPVPGALLRPTTASWVGRTGSGGKSQRDQDGGCGAAFPVASIARRVFVCLSVFLTSFFYIFISRQS [NR6A1]”, 9.66; for WPVRPLSSPS [TBL3], 0.256. Take WPYWLTPENGLLLDGHGRINFSKMFWVGVE [ACTL8]: the median enrichment stood at 1.37. Then WQAAGAWGLHWLPPAP [HNF4A], with 5.96. Turning to WQAGS [IFITM5], the median enrichment is 0.552. Then WQDLLTSS [VN1R4], with 0.623.

Regarding “WQGLPQHQSGDCDREGLAGTPRASGVVTDQEGLARTSANICGAAANNAAITENMVLVLKNVQCHFQQFKINRQNHPVARIT [OR2T2]”, the median enrichment is 6.25. WQHFCILKKCNLFLITALKL [UBQLN1]: the median enrichment was 12.2. Regarding “WQKSKGHPVPGRLSGICSPVPGTKSSTAAVKKHALESLEHEEKQGLVHMFFGISL [IL1RAPL1]”, the median enrichment was 10.6. For WQLPGDSRLSDSLQEKTVRPPFGPH [SYCE2] the value was 0.972. With WQMVIPFYFSS [CXorf1], the median enrichment amounted to 10.3. For WQP [TP53AIP1] the value was 0.544.

As to “WQPPASHTVLQLTAHVHAVRADSSSTQQTRTYGLWMDADDGTVQ [CALN1]”, the median enrichment was 8.36.

Consider WQQPQG [CCNB3], for which the median enrichment is 0.678. For the substance WQRRS [GIMAP1], the median enrichment was 0.693. For the substance “WRATGPQQCEGSLAAHPAAGAQPLPGMRLSADGETATQSFGLCVCVCVCVCVCAHPRVPVCVRILPPGAEVPWVSPLLCNGLL [FGFR3]”, the median enrichment was 3.69. Turning to WRCRHPSPIIKST [CPS1], the median enrichment is 8.4. As for “WREGSNGSRELDTVHPNTSPPPGHLEESSARIPRQSSPPAPAVPSCAVLLPHSAPGPCPFIPLKHPLKPLHHFHSQQKVIEHL [HAUS5]”, the median enrichment was determined as 4.17. WRFLLKLTLFHLSF [VHL]: the median enrichment is 9.11. For WRFPLPSSQPP [MEF2D], the median enrichment came to 2.36. On to WRGARAPWSL [CEP104], for which the median enrichment amounted to 1.95. On to “WRGEGRPAVDSLILGRSLGCAAISFCECANTKLSRAKL [SLC25A25]”, for which the median enrichment came to 6.74. Turning to WRGLQGSLLWVPT [RNF152], the median enrichment was 6.67. For “WRKRDAGTHPCLREVWLSPNPPHRPPFTKHLSCLMCPIELHSVRLDAVISGTYVTMFAEAPGVVGRGGRCG [RNF144A]”, the median enrichment was 6.33.

Turning to WRLIIYQEC [PKIB], the median enrichment was found to be 7.89. In the case of WRLRASRRDLMPRGGGCL [CTU1], the median enrichment is 5.49. For WRLSISRDMVLTQQFPVMAKCSI [IL13RA2] the value was 5.59. For WRPAPARMGGGVERRTPIG [NSG2] the value was 3.66; for WRPGRRGPSSGG [Degron KLHDC2], 10.7. In the case of WRPNSRTPK [SNRNP35], the median enrichment was found to be 0.861.

Consider WRPPHFRFGFRKTFSEKKLFF [TFDP1], for which the median enrichment was 5.19.

WRPRIQH [FAR1]: the median enrichment worked out at 1.02.

Regarding WRQRGGKETWLSLIICIQITVL [ATXN1], the median enrichment is 8.6. Then “WRRLVSTHSGAFLISSSHTNHPSLPIVSSSQ [CYP19A1]”, with 12.8. For “WRSCAAQSQTPAPTTYFCYTQEHFRKLSQLIFCFSSMSILSVSHFEDFFSLLYLCFSFFGFYFVVLSVIFNVPKICTCSIKNV [HOOK3]” the value was 2.08; for WSAVA [EFCAB2], 0.771; for “WSDCPENQKSKETRETSSLVNEPIKSRSLKKYVSVKKENRIVTVSSKTNKSKSSPLEHSESDTLGCDFEFQESIHSLSHLSYD [CEP78]”, 1.3. Regarding “WSFSHSSPSQRCDGRWTLSGEDALLLGRCSGSFSGARTEAPCDFRPGSMWACNFLHSQLGPIPGFKMVAIPEESP [SUSD1]”, the median enrichment worked out at 3.48. Take WSGKLGAFGLKGRMFPVFLDNKLGK [PKHD1]: the median enrichment came to 11.8. Then WSICLLNDTSLIYCTIS [RTCA], with 12.5; and WSILQDLPEAA [PCDH10], with 9.03; and “WSLKWRTCVFIISAKVLTSCAFPITSRSNYQLVWIFGPPFSHFGLPCSQNILNESIGIQKDSRQNERK [VCAN]”, with 11.9. For WSLRWSFVTARFARHLPGWLVLG [ARHGEF26] the value was 15.8.

On to WSLTRSLISRSTCVFIPPGN [FLT1], for which the median enrichment is 4.28. On to WSLVTPIEI [OR52A5], for which the median enrichment was 7.53.

For WSPLSRDSGKGGFLHPTPLLPWL [KIAA1191], the median enrichment amounted to 5.6. For WSPMPAHL [CDNF] the value was 9.59; for “WSPQHQGGPSLKRKEPTQVRGLPIPPSQVSTFALPPSHWGPCRSWSGLTVPSPGTQLKGPQPKL [CAND2]”, 8.57. Then WSPTRPERPEMVLTMLPANRSRKPACE [ANXA2], with 1.38; and “WSQFPVTRTILATLFESIQVVWPMILLLTYLSTSSGPCPFGKLSFFLLHWGTGC [CLEC5A]”, with 9.24.

As for WSQLTSLSRKVYP [CD9], the median enrichment stood at 1.91. Then WSRS [LCE3E], with 1.42; and WSSSSNSICKEHFSLKTCIWIIIITTF [CCDC148], with 3.42; and WSSSSSFIGLSGC [EDARADD], with 1.2.

With WSSVVE [TMEM17], the median enrichment turned out to be 0.673. As to WSTPAWYRHTQGLPCLHSPA [PDZD3], the median enrichment is 5.04. For WTAERTMHPSAWWSLRDRSDDPRRLWRTI [LILRA2] the value was 6.78; for “WTGFAYLVLTLHHHHLMPTCPHPAELLSGHSLLLPFLLPLALPGPACTPVGWKCTAGSGSGSAPLWDPTFFSSLLLK [PTPN23]”, 7.32. With “WTHPLVVDRLPGTTIIPGPPRASEFETLAEIK [TBC1D7]”, the median enrichment came out at 4.38. For WTTNTQRNNLFTTPGCMIEGEASTSTSRGP [TTLL5] the value was 16.4; for WTYVLC [OR2L5], 7.99; for WVAPPSWGEVPSRLRRRGARGRS [PHLDB3], 16.2. Regarding “WVDGRNIFINQIESIYKNGSRILPQFFCQKVCIYVCIYIYLYIYMTDVF [GCC2]”, the median enrichment was determined as 11.6.

For the substance WVEKKKKIKKQNKTHAPKK [NPIPB6], the median enrichment was 1.29. Then “WVGGISETGKVAALSHFFWNSWWSPGLGHCLSPACFFVRSGIISKCS [SLC35E2A]”, with 40.8. For WVKEEKPSTP [TAS2R19] the value was 0.336; for WVLIPTFPCDLGCRCSCCKMEANLTGVL [ADD2], 6.13; for “WVLSRAVEVPVIPAGAAATQSGRQGGEHLSATETNHSLFAQHASSSVLHSSPGSLSGSSTESFCSLKCWDA [CGNL1]”, 8.11. For WVPSEVFIPACVI [VPS13B], the median enrichment turned out to be 13.3.

Regarding “WVSAVLGTPAHSTLLEYLFPNATSVCFFLFPQSLSVSEPWAL [LALBA]”, the median enrichment is 10.8. Take WVVGSPADGSTWTWG [GABARAPL1]: the median enrichment worked out at 6.43. On to WWF [LRRCC1], for which the median enrichment amounted to 1.79. Turning to “WWHELLASLDGQSKKKLVYFVQICHKLKAVTGEKD [PIWIL4]”, the median enrichment came out at 22.9. In the case of WWLWLQRT [FAAH], the median enrichment stood at 11.2.

Consider WWPRIPIEQHKARLG [RNF216], for which the median enrichment amounted to 26.7.

As to “WWRDTRGLATLWGNWHQELLHLVSAQVDLRKGWIPVPEHQIPRQLMRLAQCVTEAPGSQQSRAYSAHQAEQATGRDDASGQGS [CCDC137]”, the median enrichment amounted to 7.53.

For “WWSCDVHEVLPHALEGSESRVNCPADILLGFLA [SLC7A6OS]”, the median enrichment came to 8.62. For WWW [Trp03] the value was 2.55.
